Measured values from US20050014931A1 (ABGENIX, published 2005).

Molecular target: BSA (UniProt P02769 25-607)
Experiment: ELISA screen of hybridoma supernatants

Sequence of BSA (P02769 25-607 limits assumed): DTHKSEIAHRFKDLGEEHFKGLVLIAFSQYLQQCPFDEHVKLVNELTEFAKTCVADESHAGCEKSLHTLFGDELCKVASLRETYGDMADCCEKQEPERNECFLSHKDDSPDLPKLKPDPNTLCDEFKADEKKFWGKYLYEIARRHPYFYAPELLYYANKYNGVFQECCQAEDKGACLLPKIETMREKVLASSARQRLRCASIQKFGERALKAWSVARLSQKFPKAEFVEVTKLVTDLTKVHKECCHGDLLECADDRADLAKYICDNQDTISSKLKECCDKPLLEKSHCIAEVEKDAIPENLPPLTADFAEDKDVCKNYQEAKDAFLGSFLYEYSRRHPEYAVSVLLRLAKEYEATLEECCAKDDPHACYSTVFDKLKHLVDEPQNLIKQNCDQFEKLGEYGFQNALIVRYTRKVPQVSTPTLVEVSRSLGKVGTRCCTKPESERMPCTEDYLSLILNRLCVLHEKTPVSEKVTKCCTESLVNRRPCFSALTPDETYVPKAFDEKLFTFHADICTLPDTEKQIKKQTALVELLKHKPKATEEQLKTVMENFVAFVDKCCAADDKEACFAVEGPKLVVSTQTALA

B1: Mab 1A2 (antibody, V domains shown)
VH: not shown
VL: DIELTQSPDFQSVTPKEKVTITCRASQSIGSSLHWYQQKPDQSPKLLIKYASQSFSGVPSRFSGSGSGTDFTLTINSLEAEDAATYYCHQSSSLPRTFGQGTKVEIKR
Does B1 bind?
Result: no binding

B2: Mab 1F10/7C5 (antibody, V domains shown)
VH: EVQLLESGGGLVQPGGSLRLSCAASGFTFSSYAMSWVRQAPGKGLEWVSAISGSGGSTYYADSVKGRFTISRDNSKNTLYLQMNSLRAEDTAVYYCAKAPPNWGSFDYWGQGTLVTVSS
VL: DIELTQSPLSLPVTLGQPASISCRSSQSLVYSDGNTYLNWFQQRPGQSPRRLIYKVSNWDSGVPDRFSGSGSGTDFTLKISRVEAEDVGVYYCMQGTHWPRTFGQGTKVEIKR
notes: also called Mab 7C5
Does B2 bind?
Result: no binding
